Measurements published in US8969530B2, “Anti-clathrin heavy chain monoclonal antibody for inhibition of tumor angiogenesis and growth and application thereof” (Academia Sinica, priority 2011, dated 2015).
Where a SMILES comes first, the peptide text is derived from it. The star is where a group is joined. Cbz = O=C(OCc1ccccc1)*

Experiments:
[1] = test system: HIF-1α protein in MIA PaCa-2 cells; experiment: HIF-1α protein level and stability in CHC knockdown cells (Western blot); format: cell-based, human; conditions: MG132 10 μM, DFX 100 μM
Description: (§1) Cells were extracted with RIPA buffer and the supernatants were immunoprecipitated using either anti-CHC antibody, Pa65-2, mAb X-22 (Affinity), or anti-HIF-1α antibody (BD), then analyzed by immunoblotting. The signals were developed using enhanced chemiluminescence reagents (ECL) (Thermo).
(§2) For hypoxia experiments, MIA PaCa-2 cells were grown in a Ruskinn Hypoxic Chamber (APM-50D, 18 Astec, Japan) and treated with either 1% O2, 5% CO2 for 18 h, or given DFX, deferoxamine (100 μM, Sigma) treatment for 5 or 16 h. For proteasome inhibitor treatment, MG132 (10 μM, Sigma) was added to culture medium then incubated 5 to 17 h.

pancreatic cancer = conditions: cited from earlier work
MIA PaCa-2 cells [2] = experiment: Binding of Pa65-2 to cells by ELISA, flow cytometry and immunofluorescence; format: cell-based, human; conditions: flow cytometry, immunofluorescent analyses
Description: Cells were cultured in 96-well polystyrene plates for 3 days and then fixed with 2% paraformaldehyde. After blocking and washing twice with PBS/0.1 % Tween 20 (PBST0.1), the hybridoma supernatants were added and the plates were incubated for 2 h at room temperature. This was followed by washing and incubating with horseradish peroxidase (HRP)-conjugated goat anti-mouse IgG for 1 h. The colorimetric reaction was developed with the substrate ortho-phenylene-diamine (OPD) according to the manufacturer's instructions (Sigma), and was stopped by adding 3 N HCl. Absorbance at 490 nm was measured using a microplate reader. Each control and test group was tested in triplicate. Each experiment was repeated at least three times. To analyse binding, cells (1×10^5 cells per tube) were prepared, washed, centrifuged, and resuspended in 100 μl of PBS/1% FCS containing Pa65-2 or NM-IgG. Cells were incubated at 4° C. for 1 h, washed twice with PBS/1% FCS and stained with […] isothiocyanate (FITC)-labeled goat anti-mouse IgG at 4° C. for 20 min. The stained cells were washed twice and fluorescence signals were measured using a FACScan (BD). […]
(§3) 3×10^3 cells were cultured into each well of 96-well polystyrene plates for 3 days and fixed with 2% paraformaldehyde. […] Absorbance at 490 nm was measured using a microplate reader. […]

[3] = test system: pancreatic adenocarcinoma cell lines MIA PaCa-2 and AsPC-1; experiment: ELISA and Western blot binding screen on pancreatic adenocarcinoma cell lines; format: cell-based, human; conditions: MIA PaCa-2, AsPC-1 versus normal HUVEC, NNM, CCD-1112Sk
Description: as §1
(§4) Cells were cultured in 96-well polystyrene plates for 3 days and then fixed with 2% paraformaldehyde. After blocking and washing twice with PBS/0.1 % Tween 20 (PBST0.1), the hybridoma supernatants were added and the plates were incubated for 2 h at room temperature. This was followed by washing and incubating with horseradish peroxidase (HRP)-conjugated goat anti-mouse IgG for 1 h. The colorimetric reaction was developed with the substrate ortho-phenylene-diamine (OPD) according to the manufacturer's instructions (Sigma), and was stopped by adding 3 N HCl. Absorbance at 490 nm was measured using a microplate reader. Each control and test group was tested in triplicate. Each experiment was repeated at least three times. […] The stained cells were washed twice and fluorescence signals were measured using a FACScan (BD).
as §3

[4] = test system: MDAMB-231 (breast cancer), CL1-5 (lung cancer), SKOV3 (ovary cancer) and SAS (oral cancer); experiment: ELISA and Western blot binding on other cancer cell lines; format: cell-based, human; conditions: MDAMB-231, CL1-5, SKOV3, SAS
Description: as §1, §4, §3

[5] = test system: human pancreatic cancer tissue array; experiment: Immunohistochemistry of Pa65-2 on human pancreatic cancer tissue arrays; conditions: for Labeling Score: score 0-4
Description: (§5) The human pancreatic cancer gene expression arrays (Origene) were analyzed by an ABI9600 thermocycler (Applied Biosystems). Tissue arrays were purchased from Pantomics Inc. Tissue sections were stained with antibodies specific for CHC (Pa65-2), VEGF (GeneTex), HIF-1α (Millipore), NM-IgG, and UEA-1-FITC (Vector). Quantification of DAB intensity was by HistoQuest software (TissueGnostics). The protocol was approved by the institutional Review Board of Human Subjects Research Ethics Committee of Academia Sinica (Taipei).
We modified the “Quick Score” methods by reducing the original scales (Siegel et al. (2012) “Cancer statistics 2012” CA Cancer J Clin, 62, 10-29). Two indices were used in evaluating the staining results of tumors. Labeling Index (LI) indicates the number of tumor cells that were immunostained (or “positive cells”) as a proportion of the overall number of cells. A score on a scale of 0-2 was assigned; 0-10%=0, 11-49%=1, 50-100% =2. The second index is the Intensity Index (II), which measures the average intensity of the immunostaining. A score on a scale of 0-2 was assigned; no staining=0, weak staining=1, and strong staining=2. The scores from these two indices were added to give the tumor Labeling Score (LS), which ranges from 0-4.

[6] = test system: blood vessels of human pancreatic cancer tissues; experiment: Immunofluorescent co-staining of Pa65-2 and UEA-1 in pancreatic cancer tissue
Description: as §5

[7] = biological target: T1, human clathrin heavy chain (CHC) (Homo sapiens, UniProt Q00610); experiment: Target identification: immunoaffinity, LC-MS/MS, immunoprecipitation and Western blot; format: binding; conditions: immunoprecipitation and Western blot in parallel with mAb X-22; CHC knockdown
T1 construct: endogenous in cells; host or cells: MIA PaCa-2 (human pancreatic adenocarcinoma cells)
T1 sequence (Q00610 whole entry): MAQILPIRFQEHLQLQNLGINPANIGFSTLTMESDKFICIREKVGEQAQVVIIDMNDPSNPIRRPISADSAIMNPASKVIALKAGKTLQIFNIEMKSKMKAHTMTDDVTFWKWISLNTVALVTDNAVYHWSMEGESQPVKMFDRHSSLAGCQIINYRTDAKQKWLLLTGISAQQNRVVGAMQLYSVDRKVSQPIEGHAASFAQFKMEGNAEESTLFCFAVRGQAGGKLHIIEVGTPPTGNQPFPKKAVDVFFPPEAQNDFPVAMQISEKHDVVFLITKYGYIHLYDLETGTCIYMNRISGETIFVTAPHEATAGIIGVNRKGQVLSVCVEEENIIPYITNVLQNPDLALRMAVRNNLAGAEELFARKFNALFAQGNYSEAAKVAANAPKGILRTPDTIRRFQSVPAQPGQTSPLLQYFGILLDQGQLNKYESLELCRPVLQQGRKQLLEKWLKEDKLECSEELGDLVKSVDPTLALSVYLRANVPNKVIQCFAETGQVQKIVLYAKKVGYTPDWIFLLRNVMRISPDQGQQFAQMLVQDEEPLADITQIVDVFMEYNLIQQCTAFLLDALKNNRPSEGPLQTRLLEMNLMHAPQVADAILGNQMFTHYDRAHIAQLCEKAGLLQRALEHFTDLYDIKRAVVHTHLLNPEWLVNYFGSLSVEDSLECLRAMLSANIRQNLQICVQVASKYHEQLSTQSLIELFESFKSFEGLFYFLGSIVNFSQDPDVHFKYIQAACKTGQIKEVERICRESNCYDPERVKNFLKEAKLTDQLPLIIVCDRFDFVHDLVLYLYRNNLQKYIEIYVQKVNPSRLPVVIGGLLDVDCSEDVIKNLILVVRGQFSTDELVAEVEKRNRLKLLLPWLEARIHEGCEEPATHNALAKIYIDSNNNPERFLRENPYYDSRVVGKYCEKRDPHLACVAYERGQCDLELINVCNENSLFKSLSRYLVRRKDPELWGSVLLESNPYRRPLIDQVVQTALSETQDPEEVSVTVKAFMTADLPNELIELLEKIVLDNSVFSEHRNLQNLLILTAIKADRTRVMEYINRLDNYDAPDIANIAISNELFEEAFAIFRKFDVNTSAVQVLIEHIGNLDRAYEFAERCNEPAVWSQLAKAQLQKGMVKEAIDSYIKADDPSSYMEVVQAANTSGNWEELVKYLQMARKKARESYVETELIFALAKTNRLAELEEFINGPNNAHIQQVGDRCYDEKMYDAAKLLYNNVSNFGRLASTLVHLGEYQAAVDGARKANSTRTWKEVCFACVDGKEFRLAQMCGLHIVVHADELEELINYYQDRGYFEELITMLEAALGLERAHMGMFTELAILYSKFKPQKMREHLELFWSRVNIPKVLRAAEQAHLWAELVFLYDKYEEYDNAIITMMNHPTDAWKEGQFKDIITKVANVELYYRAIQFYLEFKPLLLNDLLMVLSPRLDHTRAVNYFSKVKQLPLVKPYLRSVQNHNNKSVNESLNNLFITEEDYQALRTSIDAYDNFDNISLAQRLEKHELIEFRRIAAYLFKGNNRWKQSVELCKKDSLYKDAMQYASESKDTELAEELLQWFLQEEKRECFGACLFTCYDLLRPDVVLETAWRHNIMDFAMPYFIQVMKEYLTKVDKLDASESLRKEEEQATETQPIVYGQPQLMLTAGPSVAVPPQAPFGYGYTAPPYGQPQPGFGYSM
Description: MIA PaCa-2 cell lysates were purified by protein G sepharose (GE), coupled with Pa65-2 and eluted with elution buffer. The eluates were separated by SDS-PAGE. The band of interest was cut from the gel, reduced with dithioerythreitol (DTE) alkylated with iodoacetamide (IAA) and digested with trypsin for 16 h at 37° C. The digested peptides were analyzed by LC-MS/MS sequencing in the Core Facility for Proteomics and Structural Biology Research at Academia Sinica (Taipei).
as §1

MIA PaCa-2 cells [8] = experiment: EGF and transferrin uptake (internalization) assay; format: cell-based, human; conditions: pretreated 50 μg/ml at 37° C.
Description: EGF and Tf uptake assays were carried out using a fluorescence-based approach, as previously described (26). Cells were washed with serum-free medium, incubated in 1% BSA in serum-free medium at 37° C., and pretreated with Pa65-2 or NM-IgG (50 μg/ml) at 37° C. They were then incubated with or without Alex 555-EGF (1 μg/ml, INVITROGEN™) or Alex 555-transferrin (50 μg/ml) at 37° C. or 4° C. The cells were imaged using a Leica TCS SP confocal microscope (Leica).

MIA PaCa-2 cells [9] = experiment: MTT cell proliferation assay; format: cell-based, human; conditions: 50 μg/ml for 3 days
Description: Cells were cultured in 96-wells plates. To reduce cancer growth, the cells were culture in Dulbecco's modified Eagle's medium (DMEM) containing 50 μg/ml Pa65-2 or NM-IgG. After incubating for 0, 1, 2, 3 days, the cells were subjected to an MTT assay. The absorbance was determined with a microplate reader at 540 nm. Each assay was repeated for three times.

MIA PaCa-2 cells [10] = experiment: Matrigel invasion assay; format: cell-based, human
Description: RT-CES (ACEA), a microelectronic cell sensor system, was used to count tire number of living cells. Cells (5×10^3) were seeded into each sensor-containing well in microliter plates. The electronic sensors provided a continuous (every 6 h), quantitative measurement of the cell index in each well. Cell growth was measured for 72 h, and cell indices for each well were recorded at all time points. Cell invasion was assayed in 24-well Biocoat Matrigel invasion chambers (8 μm; Millipore) according to the manufacturer's directions. Cells were counted under a microscope in five predetermined fields. Assays were performed in triplicate.

MIA PaCa-2 cells [11] = experiment: Apoptosis assay (FLICA caspase activity); format: cell-based, human; conditions: 24 h
Description: Apoptosis of cultured cells was verified through the detection of caspase activity using sulforhodamine FLICA apoptosis detection kit (Immunochemistry Technologies). Cells in 96-well culture plates were treated with Pa65-2 or NM-IgG for 24 h. After incubating with FLICA, cells was read at ex/era of 550/595 nm with fluorescence plate reader (Molecular Devices).

[12] = test system: HIF-1α expression and VEGF secretion in MIA PaCa-2 cells; experiment: Western blot of HIF-1α expression and VEGF secretion under DFX hypoxia; format: cell-based, human; conditions: DFX 100 μM, 50 μg/ml, 48 h
Description: as §1, §2

HUVECs [13] = experiment: Inhibition of HUVEC VEGF internalization; format: cell-based, human; conditions: 50 μg/ml, VEGF-A 40 ng/ml
Description: HUVEC were washed with serum-free medium, incubated in 1% BSA in serum-free medium at 37° C., and pretreated with Pa65-2 or NM-IgG (50 μg/ml) at 37° C. They were then incubated with or without VEGF-A (40 ng/ml) at 37° C. or 4° C. After cells were washed, fixed and made permeable. The permeable cells were incubated with anti VEGF-A antibody (A-20, Santa Cruz). Finally, cells were stained using Rhodamine-conjugated secondary antibodies.

HUVECs [14] = experiment: Apoptosis in HUVEC by TUNEL staining; format: cell-based, human
Description: (§6) CD31 staining and TUNEL assays were carried out as described previously. The slides were then visualized under a fluorescent microscope and analyzed with MetaMorph software.

[15] = test system: MIA PaCa-2-derived pancreatic cancer xenografts; experiment: Antitumor efficacy of Pa65-2 in pancreatic cancer xenografts; format: in vivo, NOD/SCID mice
Description: All animal experiments were performed as per the guidelines of the National Laboratory Animal Center. The protocol was approved by the Committee on the Ethics of Animal Experiments of Academia Sinica (Taipei). A xenograft model was generated by injecting NOD/SCID mice with MIA PaCa-2 cells transduced with either CHC shRNA or control vector. The two kinds of transduced cells were injected into different lateral sides of the hind limbs of eight animals at the same time. For analysis of antitumor efficacy of Pa65-2, NOD/SCID mice bearing MIA PaCa-2-derived pancreatic cancer xenografts (˜50 mm^3) were intravenously injected in the tail vein with Pa65-2, or gemcitabine, or NM-IgG, or equivalent
volumes of PBS. Tumors were measured by calipers every three days, and mice were observed routinely for weight loss as a symptom of drug toxicity. The tumor volumes were calculated as length×(width)^2×0.52. Animals were treated following the guidelines established by Academia Sinica (Taipei).
as §6

Molecule: CC(C)C[C@@H](C=O)NC(=O)[C@H](CC(C)C)NC(=O)[C@H](CC(C)C)NC(=O)OCc1ccccc1 [MG132] (Cbz-Leu-Leu-Leu-aldehyde)
- decreased protein level of HIF-1α in CHC knockdown cells [1]: rescued

Molecule: Nc1ccn([C@@H]2O[C@H](CO)[C@@H](O)C2(F)F)c(=O)n1 [gemcitabine]
- effectiveness in treating pancreatic cancer (pancreatic cancer; most commonly used medicine): only moderately effective

Molecule: bevacizumab
- improvement in overall survival of pancreatic cancer patients (pancreatic cancer; clinical trial, in combination with small molecule drugs): no significant improvement

B1: Pa65-2: monoclonal antibody that recognizes human clathrin heavy chain (CHC); VH SEQ ID NO: 2, VL SEQ ID NO: 3 (antibody, listed as Homo sapiens, V domains shown)
VH: EVKLVESGGGLVKPGGSLNISCAASGFTFSNYVMSWVRQTPEKRLEWVATISSGDNYMYYPDSVKGRFTISSDNAKNTLFLQMSSLRSEDTALYYCARHFDNYEGNSMDYWGQGTSVTVSSAKTTPPSDYPLA
VL: DIVLTQSPATLSVTPGDSVSLSCRASQSIRSNLHWYQQKSHESPRLLIKYASQSISGIPSRFSGSGSGTDFILSINSVATEDFGVYFCQQSNSWPLTFGAGTKLELKRADAAPTVS
- recognition of MIA PaCa-2 cells (MIA PaCa-2 cells [2]): specifically recognize MIA PaCa-2 cells
- binding affinity to pancreatic cancer cell lines [3]: strong binding affinity
- binding to other types of cancer cell lines [4]: can also bind
- staining of pancreatic cancer tissues ([5]; 46 specimens, tissue array): positively stained
- Labeling Score ([5]; Adenocarcinoma I, stage T2N0M0): 3
- Labeling Score ([5]; Adenocarcinoma I, stage T2N1M0): 2
- Labeling Score ([5]; Adenocarcinoma I, stage T3N0M0): 3
- Labeling Score ([5]; Adenocarcinoma I, stage T3N1M0): 3
- Labeling Score ([5]; Adenocarcinoma II, stage T2N0M0): 2
- Labeling Score ([5]; Adenocarcinoma II, stage T3N0M0): 3
- Labeling Score ([5]; Adenocarcinoma II, stage T3N1MX): 3
- Labeling Score ([5]; Adenocarcinoma II, stage T4N1M1): 4
- Labeling Score ([5]; Adenocarcinoma III, stage T3N0M0): 3
- Labeling Score ([5]; Adenocarcinoma III, stage T3N1MX): 3
- Labeling Score ([5]; Normal Pancreas): 0
- staining of normal pancreatic tissues ([5]; two normal pancreatic tissues, tissue array): two normal pancreatic tissues were not
- colocalization of Pa65-2 antigen with endothelial cell marker UEA-1 [6]: colocalized
- specificity for CHC [7]: specifically recognized CHC
- EGF uptake (MIA PaCa-2 cells [8]; Alex 555-EGF 1 μg/ml): blocked
- transferrin uptake (MIA PaCa-2 cells [8]; Alex 555-transferrin 50 μg/ml): blocked
- cancer cell proliferation (MIA PaCa-2 cells [9]): inhibited
- migration (FIG. 5C) (MIA PaCa-2 cells [10]): inhibited
- cell apoptosis (MIA PaCa-2 cells [11]): induced cell apoptosis
- hypoxia-induced HIF-1α expression [12]: suppressed
- VEGF secretion ([12]; culture media): suppressed
- VEGF internalization (HUVECs [13]): suppressed VEGF internalization
- apoptosis in HUVECs (HUVECs [14]): induced apoptosis
- average tumor volume smaller than the control groups ([15]; 10 mg/kg i.v. every three days, day 36, n=6, P<0.05): about 2 fold
- blood vessels in tumor sections ([15]; CD31 staining, P<0.05): decreased
- inhibitory effect on tumor growth compared with gemcitabine ([15]; Pa65-2 10 mg/kg versus gemcitabine 15 mg/kg, i.v.): equivalent effects
- apoptotic cells in tumor sections ([15]; TUNEL, n=6, P<0.01): increased
